{"source": "paper PMC9733292", "about": "(Journal of Translational Medicine, 2022)", "binders": {"B1": {"name": "scFv OKT3 wild-type (scFv, V domains shown)", "VH": "not shown", "VL": "QIVLTQSPAIMSASPGEKVTMTCSASSSVSYMNWYQQKSGTSPKRWIYDTSKLASGVPAHFRGSGSGTSYSLTISGMEAEDAATYYCQQWSSNPFTFGSGTKLEIN", "notes": "also called OKT3 single chain variable fragment"}, "B2": {"name": "scFv OKT3 E129AzK (scFv, V domains shown)", "VH": "not shown", "VL": "B1 VL", "notes": "also called scFv OKT3 E129AzK variant"}}, "biological_target": "T1, CD3 receptor (CD3ε subunit of the T cell receptor complex) (Homo sapiens, UniProt P07766)", "T1 construct": "also called CD3 antigen; CD3 receptors", "T1 sequence (P07766 23-207, one chain of several)": "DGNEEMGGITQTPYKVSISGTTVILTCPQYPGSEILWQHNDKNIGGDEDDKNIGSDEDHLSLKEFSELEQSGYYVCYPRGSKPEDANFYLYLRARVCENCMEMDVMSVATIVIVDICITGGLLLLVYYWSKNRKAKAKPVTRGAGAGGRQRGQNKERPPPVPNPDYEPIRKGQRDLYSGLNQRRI", "test": "flow cytometry on cells", "conditions": "one partner purified"}
{"binder": "B1", "values": [{"measurement": "binding result", "result": "binds"}]}
{"binder": "B2", "values": [{"measurement": "binding result", "result": "binds"}]}
